Changes are numbered by the printed parent chain.
Tests used:
[1] = target: T1, cynomolgus monkey PSMA extracellular domain with 6His and Avi tag (PSMW1), biotinylated (cynomolgus monkey, UniProt Q04609 44-750 (human entry), biotinylated ; Biotinylated, presumably on the Avi tag, which is not in the letters. Glycosylated (expressed in HEK cells). PSMA forms a homodimer; one subunit is given.); assay: hit of CIS-display panning and ELISA screen on biotinylated PSMA (same antigen as in panning; signal at least 10-fold above background); column Antigen species
T1 construct: Expressed in 293HEK-expi cells; buffer with ZnCl2 to stabilize PSMA dimerization; A cyno PSMA-Fc fusion was also used in some plate-based pannings; also called cyno PSMA; Macaca Fascicularis PSMA
T1 chain: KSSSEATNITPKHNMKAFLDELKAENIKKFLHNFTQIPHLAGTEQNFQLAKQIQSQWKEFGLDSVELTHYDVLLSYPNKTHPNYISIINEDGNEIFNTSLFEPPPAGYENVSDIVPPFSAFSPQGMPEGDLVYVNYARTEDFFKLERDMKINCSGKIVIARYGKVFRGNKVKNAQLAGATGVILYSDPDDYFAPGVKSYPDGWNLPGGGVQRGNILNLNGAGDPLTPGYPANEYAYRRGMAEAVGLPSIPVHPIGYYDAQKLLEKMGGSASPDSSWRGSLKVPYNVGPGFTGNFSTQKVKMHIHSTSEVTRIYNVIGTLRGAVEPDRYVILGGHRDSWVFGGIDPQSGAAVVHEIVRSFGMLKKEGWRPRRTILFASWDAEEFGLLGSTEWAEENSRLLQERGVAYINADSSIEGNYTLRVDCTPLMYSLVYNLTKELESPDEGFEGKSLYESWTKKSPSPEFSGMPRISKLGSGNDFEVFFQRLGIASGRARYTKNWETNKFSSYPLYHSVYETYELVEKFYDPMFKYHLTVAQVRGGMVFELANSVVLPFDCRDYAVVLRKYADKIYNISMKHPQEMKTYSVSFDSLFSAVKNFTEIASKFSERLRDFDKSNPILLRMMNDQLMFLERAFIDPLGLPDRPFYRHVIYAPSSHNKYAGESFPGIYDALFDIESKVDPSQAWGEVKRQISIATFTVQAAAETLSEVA
Description: (§1) Neutravidin-coated plates were blocked for 1 h in Starting Block T20 (Pierce) and then coated with biotinylated PSMA (using same antigen as in panning) or negative control for 1 h. Plates were rinsed with TBST and diluted lysate was applied to plates for 1 h. Following additional rinses, wells were treated with HRP-conjugated anti-Centyrin antibody (PAB25) for 1 h and then assayed with POD (Roche). Centyrins with signals at least 10-fold above background were selected for further analysis.

[2] = target: T2, chimpanzee PSMA extracellular domain with 6His and Avi tag (PSMW8), biotinylated (chimpanzee, UniProt Q04609 44-750 (human entry), biotinylated ; Biotinylated, presumably on the Avi tag, which is not in the letters. Glycosylated (expressed in HEK cells). PSMA forms a homodimer; one subunit is given.); assay: as above
T2 construct: Expressed in 293HEK-expi cells; buffer with ZnCl2 to stabilize PSMA dimerization; also called chimp PSMA; Pan troglodytes PSMA
T2 chain: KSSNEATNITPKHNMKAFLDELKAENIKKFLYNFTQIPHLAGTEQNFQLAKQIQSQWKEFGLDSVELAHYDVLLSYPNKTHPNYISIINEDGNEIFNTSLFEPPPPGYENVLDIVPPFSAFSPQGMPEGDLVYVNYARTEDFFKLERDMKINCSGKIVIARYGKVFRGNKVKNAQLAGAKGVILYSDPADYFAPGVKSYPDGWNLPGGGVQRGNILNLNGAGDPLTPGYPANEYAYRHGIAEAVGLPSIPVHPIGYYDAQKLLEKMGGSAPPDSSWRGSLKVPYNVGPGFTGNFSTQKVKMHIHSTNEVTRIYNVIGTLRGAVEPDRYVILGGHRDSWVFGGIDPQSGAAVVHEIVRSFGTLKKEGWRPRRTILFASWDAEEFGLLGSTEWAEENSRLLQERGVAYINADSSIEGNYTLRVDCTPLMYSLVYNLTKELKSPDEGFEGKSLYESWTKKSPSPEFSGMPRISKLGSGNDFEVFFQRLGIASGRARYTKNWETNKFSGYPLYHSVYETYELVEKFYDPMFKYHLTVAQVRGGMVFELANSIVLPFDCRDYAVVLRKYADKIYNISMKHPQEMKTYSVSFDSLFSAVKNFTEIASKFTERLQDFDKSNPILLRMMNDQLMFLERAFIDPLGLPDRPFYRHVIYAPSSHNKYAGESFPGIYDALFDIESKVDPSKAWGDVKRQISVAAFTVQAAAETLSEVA
Description: as §1

B1: P258AR6P1070_A05 (designed binder)
chain: LPAPKNLVVSRVTEDSARLSWTIDEQRDWFDSFLIQYQESEKVGEAIVLTVPGSERSYDLTGLKPGTEYTVSIYGVYHVYRSNPLSAIFTT
notes: FN3 domain (Centyrin), unconjugated, as screened from E. coli lysate; not shown: C-terminal poly-histidine tag
- binding result [1]: binds

B2: P258AR6P1071_F04 (designed binder)
chain: B1 chain with T22V
notes: as for B1
- binding result [1]: binds

B3: P258AR6P1071_G03 (designed binder)
chain: B1 chain with T22D
notes: as for B1
- binding result [1]: binds

B4: P258AR6P1071_D02 (designed binder)
chain: B1 chain with T22A, D31E
notes: as for B1
- binding result [1]: binds

B5: P258AR6P1070_F09 (designed binder)
chain: B1 chain with D31E
notes: as for B1
- binding result [1]: binds

B6: P234CR9_A7 (designed binder)
chain: LPAPKNLVVSRVTEDSARLSWGEQFTIFDSFLIQYQESEKVGEAIVLTVPGSERSYDLTGLKPGTEYTVSIYGASGYEWFHAFGSSNPLSAIFTT
notes: FN3 domain (Centyrin), unconjugated, as screened from E. coli lysate; also called P234CR9_A07; not shown: C-terminal poly-histidine tag
- binding result [1]: binds

B7: P229CR5P819_H11 (designed binder)
chain: LPAPKNLVVSRVTEDSARLSWDIDEQRDWFDSFLIQYQESEKVGEAIVLTVPGSERSYDLTGLKPGTEYTVSIYGVYHVYRSSNPLSAIFTT
notes: FN3 domain (Centyrin), unconjugated, as screened from E. coli lysate; also called P229CR9P819-H11; not shown: C-terminal poly-histidine tag
- binding result [2]: binds

B8: P234CR9_H01 (designed binder)
chain: LPAPKNLVVSRVTEDSARLSWEWWVIPGDFDSFLIQYQESEKVGEAIVLTVPGSERSYDLTGLKPGTEYTVSIYGVVNSGQWNDTSNPLSAIFTT
notes: as for B1
- binding result [1]: binds

B9: His-tagged P233FR9-H10 centyrin (designed binder)
chain: LPAPKNLVVSRVTEDSARLSWTAPDAAFDSFAIGYWEWDDDGEAIVLTVPGSERSYDLTGLKPGTEYPVYIAGVKGGQWSFPLSAIFTT
notes: FN3 domain (Centyrin), unconjugated; used in the screen and in the crystal structure with cynoPSMA; also called H10 FN3 domain; P233FR9_10; not shown: C-terminal His-tag
- binding result [2]: binds

B10: P233FR9P1001_H3-1 (designed binder)
chain: B9 chain with A32P, P68H
notes: as for B1
- binding result [2]: binds

B11: P233FR9P1001_D9 (designed binder)
chain: B9 chain with A32P, P68W
notes: as for B1
- binding result [2]: binds

B12: P233FR9P1001_B5-5 (designed binder)
chain: B9 chain with A32T
notes: as for B1
- binding result [2]: binds
